B1: anti-PD-L1 HC1 + LC2 (antibody, V domains shown)
VH: QVQLVQSGAEVKKPGASVKVSCKASGFNIKDTYMYWVRQAPGQGLEWMGRIDPANDNTKYAQKFQGRVTITADTSTSTAYMELSSLRSEDTAVYYCARAKNLLNYFDYWGQGTLVTVSS
VL: DIQMTQSPSSLSASVGDRVTITCRASQEISGYLSWLQQKPGKAPKRLIYATSTLQSGVPSRFSGSRSGTDYTLTISSLQPEDFATYYCLQYAIYPLTFGQGTKLEIKR
notes: Humanized antibody, Humanized VH 1 + Humanized VL 2; also called H1+L2; H12
B2: anti-PD-L1 HC3 + LC2 (antibody, V domains shown)
VH: EVQLVQSGAEVKKPGASVKVSCKASGFNIKDTYMYWVRQAPGQGLEWMGRIDPANDNTKYAQKFQGRVTITADTSTNTAYMELSSLRSEDTAVYYCARAKNLLNYFDYWGQGTLVTVSS
VL: DIQMTQSPSSLSASVGDRVTITCRASQEISGYLSWLQQKPGKAPKRLIYATSTLQSGVPSRFSGSRSGTDYTLTISSLQPEDFATYYCLQYAIYPLTFGQGTKLEIKR
notes: Humanized antibody, Humanized VH3 + Humanized VL 2; also called H3+L2; H32
B3: anti-PD-L1 HC3 + LC3 (antibody, V domains shown)
VH: EVQLVQSGAEVKKPGASVKVSCKASGFNIKDTYMYWVRQAPGQGLEWMGRIDPANDNTKYAQKFQGRVTITADTSTNTAYMELSSLRSEDTAVYYCARAKNLLNYFDYWGQGTLVTVSS
VL: DIQMTQSPSSLSASVGDRVTITCRASQEISGYLSWYQQKPGKAPKRLIYATSTLDSGVPSRFSGSRSGSDYTLTISSLQPEDFATYYCLQYAIYPLTFGQGTKLEIKR
notes: Humanized antibody, Humanized VH3 + Humanized VL 3; also called H3+L3; H33
B4: anti-PD-L1 HC1 + LC3 (antibody, V domains shown)
VH: QVQLVQSGAEVKKPGASVKVSCKASGFNIKDTYMYWVRQAPGQGLEWMGRIDPANDNTKYAQKFQGRVTITADTSTSTAYMELSSLRSEDTAVYYCARAKNLLNYFDYWGQGTLVTVSS
VL: DIQMTQSPSSLSASVGDRVTITCRASQEISGYLSWYQQKPGKAPKRLIYATSTLDSGVPSRFSGSRSGSDYTLTISSLQPEDFATYYCLQYAIYPLTFGQGTKLEIKR
notes: Humanized antibody, Humanized VH 1 + Humanized VL 3; also called H1+L3; H13
B5: anti-PD-L1 HC3 + LC1 (antibody, V domains shown)
VH: EVQLVQSGAEVKKPGASVKVSCKASGFNIKDTYMYWVRQAPGQGLEWMGRIDPANDNTKYAQKFQGRVTITADTSTNTAYMELSSLRSEDTAVYYCARAKNLLNYFDYWGQGTLVTVSS
VL: DIQMTQSPSSLSASVGDRVTITCRASQEISGYLSWYQQKPGKAPKRLIYATSTLDSGVPSRFSGSGSGTDFTLTISSLQPEDFATYYCLQYAIYPLTFGQGTKLEIKR
notes: Humanized antibody, Humanized VH3 + Humanized VL 1; also called H3+L1; H31
B6: anti-PD-L1 HC2 + LC1 (antibody, V domains shown)
VH: QVQLVQSGAEVKKPGASVKVSCKASGFNIKDTYMYWVRQAPGQGLEWIGRIDPANDNTKYAPKFQGRVTITADTSTNTAYMELSSLRSEDTAVYYCARAKNLLNYFDYWGQGTLVTVSS
VL: DIQMTQSPSSLSASVGDRVTITCRASQEISGYLSWYQQKPGKAPKRLIYATSTLDSGVPSRFSGSGSGTDFTLTISSLQPEDFATYYCLQYAIYPLTFGQGTKLEIKR
notes: Humanized antibody, Humanized VH 2 + Humanized VL 1; also called H2+L1; H21
B7: anti-PD-L1 HC1 + LC1 (antibody, V domains shown)
VH: QVQLVQSGAEVKKPGASVKVSCKASGFNIKDTYMYWVRQAPGQGLEWMGRIDPANDNTKYAQKFQGRVTITADTSTSTAYMELSSLRSEDTAVYYCARAKNLLNYFDYWGQGTLVTVSS
VL: DIQMTQSPSSLSASVGDRVTITCRASQEISGYLSWYQQKPGKAPKRLIYATSTLDSGVPSRFSGSGSGTDFTLTISSLQPEDFATYYCLQYAIYPLTFGQGTKLEIKR
notes: Humanized antibody, Humanized VH 1 + Humanized VL 1; also called H1+L1; H11
B8: anti-PD-L1 HC2 + LC3 (antibody, V domains shown)
VH: QVQLVQSGAEVKKPGASVKVSCKASGFNIKDTYMYWVRQAPGQGLEWIGRIDPANDNTKYAPKFQGRVTITADTSTNTAYMELSSLRSEDTAVYYCARAKNLLNYFDYWGQGTLVTVSS
VL: DIQMTQSPSSLSASVGDRVTITCRASQEISGYLSWYQQKPGKAPKRLIYATSTLDSGVPSRFSGSRSGSDYTLTISSLQPEDFATYYCLQYAIYPLTFGQGTKLEIKR
notes: Humanized antibody, Humanized VH 2 + Humanized VL 3; also called H2+L3; H23
B9: anti-PD-L1 HC2 + LC2 (antibody, V domains shown)
VH: QVQLVQSGAEVKKPGASVKVSCKASGFNIKDTYMYWVRQAPGQGLEWIGRIDPANDNTKYAPKFQGRVTITADTSTNTAYMELSSLRSEDTAVYYCARAKNLLNYFDYWGQGTLVTVSS
VL: DIQMTQSPSSLSASVGDRVTITCRASQEISGYLSWLQQKPGKAPKRLIYATSTLQSGVPSRFSGSRSGTDYTLTISSLQPEDFATYYCLQYAIYPLTFGQGTKLEIKR
notes: Humanized antibody, Humanized VH 2 + Humanized VL 2; also called H2+L2; H22
B10: anti-PD-L1 parental (mouse-human chimeric mAb) (antibody, human IgG1, kappa, V domains shown)
VH: EVQLQQSGAELVKPGASVKLSCTASGFNIKDTYMYWVKQRPEQGLECIGRIDPANDNTKYDPKFQGKATITADTSSNTAYVQLASLTSEDTAVYYCARAKNLLNYFDYWGQGTTLTVSS
VL: DIQMTQSPSSLSASLGERVTLSCRASQEISGYLSWLQQKPDGTIKRLIYATSTLDSGVPKRFSGSRSGSDYSLTISSLESEDFADYYCLQYAIYPLTFGAGTKLELKR
notes: its variable domains are the same; also called parental chimeric antibody; parental (PA200)
B11: parental humanized IgG1 positive control antibody (antibody, V domains shown)
VH: QVQLVQSGAEVKKPGASVKVSCKASGFNIKDTYMYWVRQAPGQGLEWMGRIDPANDNTKYAQKFQGRVTITADTSTSTAYMELSSLRSEDTAVYYCARAKNLLNYFDYWGQGTLVTVSS
VL: DIQMTQSPSSLSASVGDRVTITCRASQEISGYLSWLQQKPGKAPKRLIYATSTLQSGVPSRFSGSRSGTDYTLTISSLQPEDFATYYCLQYAIYPLTFGQGTKLEIKR
notes: also called anti-PD-L1 IgG1; Anti-Human PD-L1 IgG1
B12: anti-hPD-L1 mAb 5B7 (antibody, IgG1, V domains shown)
VH: EVQLQQSGAELVKPGASVKLSCTASGFNIKDTYMYWVKQRPEQGLECIGRIDPANDNTKYDPKFQGKATITADTSSNTAYVQLASLTSEDTAVYYCARAKNLLNYFDYWGQGTTLTVSS
VL: DIQMTQSPSSLSASLGERVTLSCRASQEISGYLSWLQQKPDGTIKRLIYATSTLDSGVPKRFSGSRSGSDYSLTISSLESEDFADYYCLQYAIYPLTFGAGTKLELKR
notes: also called anti hPD-L1 monoclonal antibody 5B7; anti-hPD-L1 monoclonal antibody

target: T1, hPD-L1mIg fusion protein (human, UniProt Q9NZQ7 19-238); assay: SPR, Biacore T200; hPD-L1 mIg amine-coupled on CM5 chip, antibody injected at 1-32 nM, full kinetic analysis
T1 construct: also called hPD-L1 mIg protein; biotin-labeled hPD-L1-mouse Fc fusion protein; not shown: mouse Ig (Fc) part
Experimental: The binding affinities and kinetics between the humanized anti-hPD-L1 mAbs and the hPD-L1 protein were assessed with Biacore T200 (GE Healthcare Life Sciences). The hPD-L1 mIg protein was immobilized on the sensor chip CM5 by amine coupling. The parental and humanized antibodies were injected at a concentration gradient of 1, 2, 4, 8, 16, and 32 nM. Binding kinetic parameters, including association rate (Kₒₙ), dissociation rate (Koff), and affinity constant (KD) were determined by full kinetic analysis. […] As shown in Table 7 and FIG. 4, the antibodies with dissociation rates (Koff) from the lowest to the highest were: parental (PA200), H1+L2 (H12), H3+L2 (H32), H1+L1 (H11), H1+L3 (H13), H3+L1 (H31), H3+L3 (H33), H2+L2 (H22), H2+L1 (H21), and H2+L3 (H23).

T1 sequence (Q9NZQ7 19-238): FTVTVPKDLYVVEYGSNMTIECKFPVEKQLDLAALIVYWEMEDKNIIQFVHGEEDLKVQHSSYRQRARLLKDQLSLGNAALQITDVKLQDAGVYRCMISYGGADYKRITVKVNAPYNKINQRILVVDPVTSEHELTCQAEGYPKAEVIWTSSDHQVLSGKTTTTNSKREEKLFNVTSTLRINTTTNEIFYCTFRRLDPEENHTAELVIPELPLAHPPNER

B1 and B2 are within 1.5-fold of each other in Kd: 0.557 nM for the first, 0.666 nM for the second.

B3 and B4 are within 1.5-fold of each other in Kd: 1 nM for the first, 1.3 nM for the second.

Compared with B5, B6 is 1.9-fold higher in Kd: 1.17 nM for the first, 2.18 nM for the second.

B7 and B8 are within 1.5-fold of each other in Kd: 1.38 nM for the first, 1.84 nM for the second.

Compared with B9, B10 is 9.6-fold lower in Kd: 1.23 nM for the first, 0.128 nM for the second.

B1 and B2 are within 1.5-fold of each other in koff: 0.000811 s⁻¹ for the first, 0.0011 s⁻¹ for the second.

B3 and B4 are within 1.5-fold of each other in koff: 0.00146 s⁻¹ for the first, 0.00143 s⁻¹ for the second.

First: B5
Second: B6
The koff of the first is 2.8-fold lower: 0.00146 s⁻¹ for the first, 0.00406 s⁻¹ for the second.

Going from B7 to B8, the koff rises from 0.0012 s⁻¹ to 0.00417 s⁻¹ (3.5-fold).

Going from B9 to B10, the koff falls from 0.00251 s⁻¹ to 0.000118 s⁻¹ (21-fold).

B1 and B2 are within 1.5-fold of each other in kon: 1.46e+06 M⁻¹ s⁻¹ for the first, 1.65e+06 M⁻¹ s⁻¹ for the second.

B3 and B4 are within 1.5-fold of each other in kon: 1.46e+06 M⁻¹ s⁻¹ for the first, 1.1e+06 M⁻¹ s⁻¹ for the second.

B5 and B6 are within 1.5-fold of each other in kon: 1.25e+06 M⁻¹ s⁻¹ for the first, 1.86e+06 M⁻¹ s⁻¹ for the second.

First: B7
Second: B8
The kon of the first is 2.6-fold lower: 869000 M⁻¹ s⁻¹ for the first, 2.26e+06 M⁻¹ s⁻¹ for the second.

Going from B9 to B10, the kon falls from 2.05e+06 M⁻¹ s⁻¹ to 924000 M⁻¹ s⁻¹ (2.2-fold).

target: T1, hPD-L1mIg fusion protein; assay: BLI, ForteBio Octet RED96; biotin-labeled hPD-L1-mouse Fc on SA sensors, 1:1 model
Experimental: All samples were prepared in PBS buffer (pH=7.4). The biotin-labeled hPD-L1-mouse Fc fusion protein was loaded onto SA sensors at a pre-determined loading threshold. scFv (PD-L1) was applied to the sensors at a concentration gradient of 3.125 nM-50 nM. Background subtraction was used to correct for sensor drifting. The data was fit to a 1:1 binding model using ForteBio's data analysis software in order to obtain the association (Kₒₙ) and dissociation (Koff) rates. The KD values were calculated based on Koff/Kₒₙ.

Work on B11 yielded a Kd of 6.92 nM.

Work on B11 yielded a koff of 0.000225 s⁻¹.

B11 gave a kon of 32600 M⁻¹ s⁻¹.

target: T2, mouse PD-L1 on transfected CHO cells (mouse, UniProt Q9EP73 19-290); assay: flow cytometry on CHO/mPD-L1 cells, one antibody amount, not given
T2 construct: whole, on cells; also called mPD-L1; CHO/mPD-L1
Experimental: CHO cells transfected with mouse PD-L1 (CHO/mPD-L1) were used to assess the species cross-reactivity of the anti-hPD-L1 mAb with mouse PD-L1. The cells were incubated with the anti-hPD-L1 mAb prior to flow cytometry analysis.

T2 sequence (Q9EP73 19-290): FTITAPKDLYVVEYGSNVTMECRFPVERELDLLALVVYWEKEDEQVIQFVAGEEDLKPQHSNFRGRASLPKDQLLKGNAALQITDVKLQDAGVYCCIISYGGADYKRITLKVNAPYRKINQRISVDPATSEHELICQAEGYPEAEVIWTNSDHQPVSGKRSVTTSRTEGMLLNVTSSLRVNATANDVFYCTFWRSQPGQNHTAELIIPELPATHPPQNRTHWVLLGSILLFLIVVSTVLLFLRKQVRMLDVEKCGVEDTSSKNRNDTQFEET

B12: binds.

Reference: patent US20210213145A1 (TAYU HUAXIA BIOTECH MEDICAL GROUP, published 2021)
